Reference: PMC5966431

Assays:
Test in all cases: SEC; Size-exclusion chromatography of the purified His6-tagged recombinant proteins. Column and buffer are not told for these proteins. Dimerization was not detected consistently under the authors' conditions.
[1] = target: Mase04140 (PL17 family alginate lyase, subfamily 2, Alteromonas macleodii) (Alteromonas macleodii)
[2] = target: Pedsa1196 (PL17 family alginate lyase, subfamily 2, Pedobacter saltans) (Pedobacter saltans)
[3] = target: Valg4460 (PL17 family polysaccharide lyase, subfamily 2, Vibrio alginolyticus) (Vibrio alginolyticus)

Mase04140 (PL17 family alginate lyase, subfamily 2, Alteromonas macleodii) (enzyme)
stoichiometry N [1]: 2

Pedsa1196 (PL17 family alginate lyase, subfamily 2, Pedobacter saltans) (enzyme)
stoichiometry N [2]: 2

Valg4460 (PL17 family polysaccharide lyase, subfamily 2, Vibrio alginolyticus) (enzyme)
stoichiometry N [3]: 2
